The text below walks through data of the supplement of paper PMC10126150.

± gives the standard deviation of the averaged measurements.

This data set has as its system ATP. In words: switch fluorescence ratio, 500 uM ATP over buffer (Cy3 cluster intensity, sum of 5 cycles each) (fold (ratio)); higher = stronger signal-on switching upon ATP binding; sequences stand for … in TCGTCGGCAGCGTCAGATGTGTATAAGAGACAGTTTTTTTTTTTTTTTTTTTTTTTTT…TC. Conditions: aptamer strand: ATP DNA aptamer (quencher-CACCTGGGGGAGTATTGCGGAGGAAGG + anchor), 100 nM annealed; ATP concentration: 500 uM. The method in brief: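 Between each of five buffer/ATP cycles, the flow-cell was stripped with NaOH and re-annealed. Each cycle imaged Cy3-labelled switching-strand clusters, annealed to 100 nM quencher-labelled ATP aptamer on a modified Illumina MiSeq flow-cell, first in selection buffer and then after 15 min with 500 uM ATP at 22 °C. The fluorescence ratio is summed target-cycle over summed buffer-cycle Cy3 intensity per cluster, averaged per switch-domain sequence, with clusters outside 100-1000 RFU excluded.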
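Also: ATP exposure 15 min at 22 °C before imaging.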

Take TGGGGTACAC: the switch fluorescence ratio was 0.993 ± 0.024.

On to TTGAAGGCGG, for which the switch fluorescence ratio came out at 1.02 ± 0.024.

Consider TACGGCTATC, for which the switch fluorescence ratio stood at 1.16 ± 0.047.

Regarding GTTGTAGCTG, the switch fluorescence ratio was determined as 0.967 ± 0.015.

For the sequence TGCGTCTGAT, the switch fluorescence ratio amounted to 1.001 ± 0.0082.

For CGGGGTGTGC, the switch fluorescence ratio was 1.01 ± 0.031.

Regarding GGGGGTGCCT, the switch fluorescence ratio was 0.986 ± 0.064.

As for TTCCCGTCAG, the switch fluorescence ratio turned out to be 1.022 ± 0.0017.

Regarding AGGGACTTGG, the switch fluorescence ratio was found to be 1 ± 0.047.

For AGATTGGTTC, the switch fluorescence ratio was 0.9953 ± 0.0044.

As to GGGGGGGGTA, the switch fluorescence ratio worked out at 1 ± 0.044.

On to GGGCGACGGC, for which the switch fluorescence ratio is 1.04 ± 0.047.

Take AAGGAGGGTA: the switch fluorescence ratio stood at 1.01 ± 0.038.

Regarding GGTTTCTCTT, the switch fluorescence ratio was 1.003 ± 0.0099.

On to TGCAAGCGGG, for which the switch fluorescence ratio was found to be 0.985 ± 0.027.

For the sequence CCGATGTATA, the switch fluorescence ratio stood at 1.35 ± 0.053.

Turning to TTCGGGTATG, the switch fluorescence ratio was 1.01 ± 0.013.

For the sequence ACATTAGGGA, the switch fluorescence ratio was found to be 1.04 ± 0.058.

For the sequence GTGTGGAAGA, the switch fluorescence ratio stood at 1.019 ± 0.0054.

Consider ACGGGGGTTC, for which the switch fluorescence ratio was 1.01 ± 0.012.

Turning to TCGGTGGGAG, the switch fluorescence ratio was 0.981 ± 0.048.

On to TCGGTGAGAG, for which the switch fluorescence ratio came to 1.03 ± 0.019.

In the case of TCATTTGGGG, the switch fluorescence ratio turned out to be 0.975 ± 0.024.

For CAACTGGGGC, the switch fluorescence ratio worked out at 1.06 ± 0.022.

In the case of AGGGAAAAAC, the switch fluorescence ratio was 2.45 ± 2.

Consider GGTCTATCCG, for which the switch fluorescence ratio worked out at 0.983 ± 0.046.

Consider TAAGCGGAAT, for which the switch fluorescence ratio came out at 1.03 ± 0.013.

In the case of AATTGTGGTT, the switch fluorescence ratio was 0.97 ± 0.043.

As to TGTAAGAGCG, the switch fluorescence ratio is 0.9934 ± 0.0022.

Turning to AGTGGGAGGA, the switch fluorescence ratio stood at 0.996 ± 0.02.

In the case of GATGGGAAGT, the switch fluorescence ratio is 1.01 ± 0.024.

In the case of AATGGCTTTG, the switch fluorescence ratio was 1.029 ± 0.0062.

ACCATAAGGG: the switch fluorescence ratio came out at 1 ± 0.028.

Regarding TTTGAGGACT, the switch fluorescence ratio came out at 0.992 ± 0.025.

Turning to CCGTGAGTTT, the switch fluorescence ratio came out at 1.07 ± 0.04.

With AGAGGCGTAT, the switch fluorescence ratio came to 0.974 ± 0.011.

Regarding AGTTGGAATT, the switch fluorescence ratio amounted to 0.979 ± 0.012.

For ATCTGGATGG, the switch fluorescence ratio is 0.996 ± 0.03.

Regarding CAAGTATTTA, the switch fluorescence ratio came to 1.03 ± 0.011.

Regarding CGATGGGATT, the switch fluorescence ratio is 1.056 ± 0.0043.

Regarding TTTGTTCACT, the switch fluorescence ratio turned out to be 0.989 ± 0.041.

As for AATATGATTG, the switch fluorescence ratio was determined as 1.02 ± 0.019.

For CAAAATGTTC, the switch fluorescence ratio is 1.021 ± 0.0086.

With GTGACCAGAA, the switch fluorescence ratio amounted to 0.983 ± 0.025.

Turning to TTGAGTTTAA, the switch fluorescence ratio was 1.003 ± 0.0065.

As to TTTTCCCGGG, the switch fluorescence ratio worked out at 1.13 ± 0.15.

Take GGGATGTTGG: the switch fluorescence ratio was determined as 1.006 ± 0.0071.

Consider TATTTTGTGA, for which the switch fluorescence ratio turned out to be 0.952 ± 0.018.

Regarding TAGTAAAGGT, the switch fluorescence ratio stood at 1.022 ± 0.0068.

In the case of GAACGAAAGG, the switch fluorescence ratio turned out to be 1.03 ± 0.042.

For AAGGATGTAA, the switch fluorescence ratio worked out at 0.995 ± 0.03.

Take TTTTATCTGT: the switch fluorescence ratio amounted to 1.01 ± 0.091.

Turning to GAGGTGGGCT, the switch fluorescence ratio worked out at 1 ± 0.067.

With AATACCTGAA, the switch fluorescence ratio worked out at 1.17 ± 0.017.

As for AAGCAGGCGG, the switch fluorescence ratio was found to be 1.02 ± 0.021.

In the case of CATTTAAAAA, the switch fluorescence ratio is 0.919 ± 0.032.

For GTTTTGTTTG, the switch fluorescence ratio is 0.9553 ± 0.0016.

In the case of GTGGATAAGA, the switch fluorescence ratio turned out to be 1.0003 ± 1.9e-06.

Consider GAGGAGCTAA, for which the switch fluorescence ratio is 1.006 ± 0.0034.

As to AAGGGGAATG, the switch fluorescence ratio turned out to be 1.02 ± 0.056.

With GAAAATAGAT, the switch fluorescence ratio is 0.9663 ± 0.0028.

CCGTGTTGCG: the switch fluorescence ratio was 1.01 ± 0.022.

For CAGCACAGGG, the switch fluorescence ratio was determined as 1.18 ± 0.017.

TTTGTTGGCA: the switch fluorescence ratio stood at 0.986 ± 0.024.

As to TGTAAGCTAG, the switch fluorescence ratio came to 1.017 ± 0.0066.

On to CGCTCTTGGA, for which the switch fluorescence ratio was determined as 0.976 ± 0.031.

Consider TGGTTCAAGT, for which the switch fluorescence ratio worked out at 0.984 ± 0.011.

Turning to ACTGAGGTAA, the switch fluorescence ratio worked out at 0.95 ± 0.043.

As to GACGGTAGAG, the switch fluorescence ratio was determined as 1.03 ± 0.02.

As to GGTGTGAATT, the switch fluorescence ratio stood at 1.02 ± 0.034.

As for GAGGGATGTT, the switch fluorescence ratio amounted to 1.01 ± 0.0092.

Consider CCGGGGAGTC, for which the switch fluorescence ratio turned out to be 1.04 ± 0.044.

Take AATTAATGGT: the switch fluorescence ratio was 0.978 ± 0.011.

With TTTCAATTTA, the switch fluorescence ratio was found to be 0.996 ± 0.011.

With GGGGGCTATG, the switch fluorescence ratio was found to be 0.99 ± 0.015.

With TAAATTAGCC, the switch fluorescence ratio amounted to 1.03 ± 0.014.

On to TTATGATAGG, for which the switch fluorescence ratio worked out at 1.016 ± 0.0079.

Regarding TTGGTGGGGC, the switch fluorescence ratio was determined as 0.98 ± 0.02.

Regarding TGTACGGGGT, the switch fluorescence ratio stood at 1.01 ± 0.021.

As to AAAAAGGTTA, the switch fluorescence ratio turned out to be 0.998 ± 0.025.

For the sequence TCATTTTAGT, the switch fluorescence ratio is 0.99 ± 0.026.

Take GCATCAATTT: the switch fluorescence ratio turned out to be 1.016 ± 0.0012.

Turning to AGTTATTTTT, the switch fluorescence ratio worked out at 0.991 ± 0.011.

In the case of TCGAGTTTGG, the switch fluorescence ratio was determined as 1.01 ± 0.022.

Take GATTTTGTGG: the switch fluorescence ratio was found to be 0.971 ± 0.02.

Turning to TTATGGGCGT, the switch fluorescence ratio amounted to 1.02 ± 0.02.

Take AAGTGGAGTG: the switch fluorescence ratio was found to be 0.999 ± 0.041.

In the case of GGGGTTCGTC, the switch fluorescence ratio was 1 ± 0.044.

With CTGGAAAACG, the switch fluorescence ratio stood at 1.008 ± 0.0046.

For the sequence AGATCGAACT, the switch fluorescence ratio came to 0.994 ± 0.019.

For the sequence CGGGTAGGGG, the switch fluorescence ratio is 0.996 ± 0.069.

Take AGTAAAGCAG: the switch fluorescence ratio is 1 ± 0.055.

On to GTTAACTCTG, for which the switch fluorescence ratio stood at 0.9801 ± 0.0084.

As for GAAAGGCAGA, the switch fluorescence ratio was found to be 1.01 ± 0.01.

As for GGGGCACTGG, the switch fluorescence ratio is 1.03 ± 0.028.

Regarding GGAGTAGCAG, the switch fluorescence ratio was determined as 1.02 ± 0.074.

GTGGTTTGCT: the switch fluorescence ratio was determined as 1.01 ± 0.013.

With ATCTTCTTAG, the switch fluorescence ratio was 0.977 ± 0.051.

With TTGGCCTTTT, the switch fluorescence ratio came to 1.09 ± 0.12.

Regarding CCGGCCCCGG, the switch fluorescence ratio came out at 1.68 ± 0.028.

TAGGCTTGAA: the switch fluorescence ratio came out at 1.03 ± 0.028.

On to TTCATGGACA, for which the switch fluorescence ratio stood at 0.99 ± 0.014.

For the sequence AAGTGGGGGT, the switch fluorescence ratio is 1 ± 0.039.

Turning to GGGAATTGGG, the switch fluorescence ratio came out at 0.997 ± 0.018.

As to TAACAGGTAT, the switch fluorescence ratio came out at 1 ± 0.046.

For CAATAATGTG, the switch fluorescence ratio is 0.968 ± 0.034.

As to GTTGAAGGAT, the switch fluorescence ratio stood at 1.003 ± 0.0036.

As to CAAGCTTGAA, the switch fluorescence ratio worked out at 0.963 ± 0.026.

Take TTTGGTCGC: the switch fluorescence ratio came to 0.9851 ± 0.0012.

Turning to GGTCCAAGAT, the switch fluorescence ratio is 0.9998 ± 0.0066.

For ACGGCCGGGA, the switch fluorescence ratio was found to be 1.02 ± 0.026.

As to AATATAGGGT, the switch fluorescence ratio is 0.997 ± 0.028.

As to CGGGGAACTC, the switch fluorescence ratio turned out to be 1.06 ± 0.056.

With TGCTCATAGC, the switch fluorescence ratio amounted to 1.01 ± 0.021.

Consider TAGGGACTAG, for which the switch fluorescence ratio amounted to 1.02 ± 0.015.

On to TTTGTCAGAC, for which the switch fluorescence ratio came to 1.03 ± 0.054.

With CGGAGTATAT, the switch fluorescence ratio was 1.87 ± 0.11.

Turning to CAGAGCGGGG, the switch fluorescence ratio was 0.998 ± 0.023.

For the sequence GACAAGGAGG, the switch fluorescence ratio was found to be 1.02 ± 0.028.

As for GCATTTTGTT, the switch fluorescence ratio was 0.986 ± 0.019.
